One assay concerns the target T1, His6-Nab2 (S. cerevisiae, UniProt P32505 1-525).
T1 sequence (looked up): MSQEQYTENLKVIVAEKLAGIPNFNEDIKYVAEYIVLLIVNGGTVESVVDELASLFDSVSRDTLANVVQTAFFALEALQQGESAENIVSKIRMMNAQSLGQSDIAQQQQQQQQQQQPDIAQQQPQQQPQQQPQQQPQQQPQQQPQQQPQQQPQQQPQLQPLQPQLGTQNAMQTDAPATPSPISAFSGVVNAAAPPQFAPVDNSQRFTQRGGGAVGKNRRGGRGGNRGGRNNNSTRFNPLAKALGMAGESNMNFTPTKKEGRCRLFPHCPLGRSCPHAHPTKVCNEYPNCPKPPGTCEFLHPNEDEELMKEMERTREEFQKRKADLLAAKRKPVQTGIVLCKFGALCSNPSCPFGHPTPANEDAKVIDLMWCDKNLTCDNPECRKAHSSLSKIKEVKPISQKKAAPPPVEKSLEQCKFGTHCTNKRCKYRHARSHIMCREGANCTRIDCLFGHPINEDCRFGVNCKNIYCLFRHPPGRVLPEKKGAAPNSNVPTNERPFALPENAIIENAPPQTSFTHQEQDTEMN
As to the kind of experiment: pull-down.

For assay [1], the target named is His6-S-Tag-Mlp1-NBD (residues 1586–1768) (S. cerevisiae, UniProt Q02455 1586-1768). As to the kind of experiment: ELISA. Background: In an ELISA, binding on a coated surface is turned into a signal by an enzyme label.

Numbering of substitutions follows the chain as printed. Numbers in names are those of the source.

Experimental findings from PMC2555995 (The Journal of Biological Chemistry, 2008) are described below.

B1: GST-CT-Mlp1 (residues 1490–1875) (domain or fragment, S. cerevisiae, UniProt Q02455 1490-1875, looked up)
chain: AQERLNQPSNINMEEIKKKWESEHEQEVSQKIREAEEALKKRIRLPTEEKINKIIERKKEELEKEFEEKVEERIKSMEQSGEIDVVLRKQLEAKVQEKQKELENEYNKKLQEELKDVPHSSHISDDERDKLRAEIESRLREEFNNELQAIKKKSFDEGKQQAMMKTTLLERKLAKMESQLSETKQSAESPPKSVNNVQNPLLGLPRKIEENSNSPFNPLLSGEKLLKLNSKSSSGGFNPFTSPSPNKHLQNDNDKRESLANKTDPPTHLEPSFNIPASRGLISSSSTLSTDTNDEELTSNNPAQKDSSNRNVQSEEDTEKKKEGEPVKRGEAIEEQTKSNKRPIDEVGELKNDEDDTTENINESKKIKTEDEEEKETDKVNDENSI
Regarding B1, the binding result in the assay with His6-Nab2 is listed as “binds”.

B2: GST-Nab2-N-WT (residues 1–97) (domain or fragment, S. cerevisiae, UniProt P32505 1-97, looked up)
chain: MSQEQYTENLKVIVAEKLAGIPNFNEDIKYVAEYIVLLIVNGGTVESVVDELASLFDSVSRDTLANVVQTAFFALEALQQGESAENIVSKIRMMNAQ
The Kd is the constant that tells how readily two partners part at equilibrium. In assay [1], B2 returned a Kd of 1260 nM.

B3: GST-Nab2-N-F73W (residues 1–97) (domain or fragment, S. cerevisiae, UniProt P32505 1-97, looked up)
chain: B2 chain with F73W
For B3, binding in assay [1] was characterised by a dissociation constant (Kd) of 830 nM.

B4: GST-Nab2-N-F72D (residues 1–97) (domain or fragment, S. cerevisiae, UniProt P32505 1-97, looked up)
chain: B2 chain with F72D
In assay [1], B4 registered a Kd of 2310 nM.
